We go through two substances from patent US20120195879A1.

One experiment addresses human Kv1.3 (human) (UniProt P22001). Nature of the experiment: cell-based or functional assay.
A further experiment concerns the target human Kv1.1 (human) (UniProt Q09470). As to the kind of experiment: cell-based or functional assay.

Chain of human Kv1.3 (human) (P22001 whole entry): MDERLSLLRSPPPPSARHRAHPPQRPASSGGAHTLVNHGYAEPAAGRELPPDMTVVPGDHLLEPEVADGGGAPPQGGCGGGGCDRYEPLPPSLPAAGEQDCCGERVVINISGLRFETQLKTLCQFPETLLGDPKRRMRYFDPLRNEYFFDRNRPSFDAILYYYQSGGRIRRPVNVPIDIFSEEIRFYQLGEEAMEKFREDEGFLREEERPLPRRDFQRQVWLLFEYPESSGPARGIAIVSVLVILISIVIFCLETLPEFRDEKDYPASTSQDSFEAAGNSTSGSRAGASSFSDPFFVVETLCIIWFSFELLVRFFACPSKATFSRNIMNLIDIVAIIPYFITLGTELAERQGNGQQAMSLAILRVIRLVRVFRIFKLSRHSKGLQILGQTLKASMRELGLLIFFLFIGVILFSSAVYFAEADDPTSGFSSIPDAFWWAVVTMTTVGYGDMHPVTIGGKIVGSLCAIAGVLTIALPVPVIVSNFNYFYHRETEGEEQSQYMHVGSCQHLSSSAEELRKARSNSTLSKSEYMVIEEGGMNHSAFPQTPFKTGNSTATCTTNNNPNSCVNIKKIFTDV
Chain of human Kv1.1 (human) (Q09470 whole entry): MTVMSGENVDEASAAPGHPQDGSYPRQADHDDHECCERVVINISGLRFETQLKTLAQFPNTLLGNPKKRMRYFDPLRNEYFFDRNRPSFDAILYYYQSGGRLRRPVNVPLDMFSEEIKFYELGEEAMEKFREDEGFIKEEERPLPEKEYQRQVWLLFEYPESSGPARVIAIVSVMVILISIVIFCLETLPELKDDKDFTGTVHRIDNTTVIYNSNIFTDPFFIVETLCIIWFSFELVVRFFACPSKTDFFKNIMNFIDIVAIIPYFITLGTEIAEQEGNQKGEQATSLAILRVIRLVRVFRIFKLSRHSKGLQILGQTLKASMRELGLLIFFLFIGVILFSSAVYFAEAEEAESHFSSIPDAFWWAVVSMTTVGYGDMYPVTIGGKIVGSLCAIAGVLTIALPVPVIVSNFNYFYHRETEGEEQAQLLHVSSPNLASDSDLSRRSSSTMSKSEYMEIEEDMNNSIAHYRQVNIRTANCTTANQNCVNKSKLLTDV

In turn, “Monovalent Fc/Fc-L10-ShK[2-35] heterodimer (Fc fusion)” registered a Potency Relative to ShK (WB, IL2) with human Kv1.3 (human) of 32.1.
On to 20 kDa-PEG-ShK (peptide), for which the Kv1.1 (PX) IC50 with human Kv1.1 (human) stood at 1.63 nM. Moreover, in the experiment with human Kv1.3 (human), the Kv1.1/Kv1.3 Selectivity Ratio by PX came to 5.44; the Kv1.3 (PX) IC50 was 0.299 nM; the Potency Relative to ShK (WB, IL2) was determined as 5.67; the WB (IFNg) IC50 amounted to 0.84 nM. This substance also had a WB (IL-2) IC50 in the experiment with human Kv1.3 (human) of 0.38 nM.
